Assay results taken from the supplement of paper PMC10899765.

Assays:
Conditions in all cases: 20 nM; 72 h
[1] = tested on: MCF10A; assay: percent viability (nuclei count relative to siNT); higher = more viable cells
Procedure: (§1)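 After 72 h, cells were fixed and stained with Hoechst and anti-fibrillarin, and nucleoli per nucleus were counted with CellProfiler. Values are plate-adjusted percent effect for the one-nucleolus and 5+ nucleoli phenotypes, normalised to siNT (0%) and to the positive controls siNOL11 or siKIF11 (100%), as the mean of biological triplicates. Percent viability is the nuclei count relative to siNT.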

[2] = tested on: MCF10A; assay: 5+ nucleoli phenotype percent effect (relative to siNT 0% and siKIF11 100%); higher = more cells with five or more nucleoli
Procedure: as §1

[3] = tested on: MCF10A; assay: one-nucleolus phenotype percent effect (relative to siNT 0% and siNOL11 100%); higher = more cells with one nucleolus (ribosome biogenesis inhibition)
Procedure: as §1

Sequence	percent viability [1] [%]	5+ nucleoli phenotype percent effect [2] [%]	one-nucleolus phenotype percent effect [3] [%]
UGGCCCUGACUGAAGACCAGCAGU [hsa-miR-1291]	51	23.5	5.12
AAGCAUUCUUUCAUUGGUUGG [hsa-miR-1179]	98.7	0.87	1.48
GAGUGCCUUCUUUUGGAGCGUU [hsa-miR-515-3p]	50.3	9.82	-6.31
UGCAACGAACCUGAGCCACUGA [hsa-miR-891a]	57.7	1.67	-1.85
AUUGUCCUUGCUGUUUGGAGAU [hsa-miR-2355-3p]	55.4	-3.53	-8.98
UCCUGCGUAGGAUCUGAGGAGU [hsa-miR-3193]	58.9	10.1	-18.1
UGAGGGAGGAGACUGCA [hsa-miR-4419a]	7.9	-18.8	18.6
ACGGAUGUUUGAGCAUGUGCUA [hsa-miR-105-3p]	117	12.2	-17
GAAAAUGAUGAGUAGUGACUGAUG [hsa-miR-3662]	88.3	57.8	-17.5
ACUGAAUCCUCUUUUCCUCAG [hsa-miR-5187-3p]	67.9	0.116	-12.2
AGAGCUGGCUGAAGGGCAG [hsa-miR-4487]	18.7	16.5	25.5
UAUGUGCCUUUGGACUACAUCG [hsa-miR-455-5p]	44.7	-19.3	-2.17
AAAAACCACAAUUACUUUU [hsa-miR-548ap-3p]	30.2	-30.6	16.7
AUGUGCCUGAGGGAGUAAGACA [hsa-miR-550b-2-5p]	49.7	-13.6	9.16
UCGGCUCUCUCCCUCACCCUAG [hsa-miR-6741-3p]	33.2	-4.11	9.37
UAUCGUAUCGUAUUGUAUUGU [hsa-miR-5686]	93.8	39.8	-22.7
UAGGUAGAGUGUGAGGAGGAGGUC [hsa-miR-6831-5p]	53.8	27.5	-21
AACGCCAUUAUCACACUAAAUA [hsa-miR-122-3p]	131	35.4	-17.4
UUCCAGCCCUGGUAGGCGCCGCG [hsa-miR-6720-5p]	17.9	-23.2	45
AAUGUUUUUUCCUGUUUCC [hsa-miR-4307]	63.9	3.12	-12.3
CCCGGAGCCAGGAUGCAGCUC [hsa-miR-1203]	68.6	4.95	-10.2
UGGAGAGAAAGGCAGUUCCUGA [hsa-miR-185-5p]	21.7	-10.1	5.33
UAGGGAUGGGAGGCCAGGAUGA [hsa-miR-6757-5p]	41.1	2.44	3.26
UCACAGUGAACCGGUCUCUUU [hsa-miR-128]	81.7	-27.9	12.2

Sequence	percent viability [1] [%]	5+ nucleoli phenotype percent effect [2] [%]	one-nucleolus phenotype percent effect [3] [%]
UUGCUCCUGACUCUGUGCCCACA [hsa-miR-6772-3p]	32.5	-4.99	1.77
UGUGGAAGGUAGACGGCCAGAGA [hsa-miR-3190-3p]	19.8	-44	42.7
UGCACCAUGGUUGUCUGAGCAUG [hsa-miR-767-5p]	65.4	8.28	-10.3
UUAUCAGAAUCUCCAGGGGUAC [hsa-miR-361-5p]	62.4	-4.16	-9.14
AGCCUGGAAGCUGGAGCCUGCAGU [hsa-miR-1254]	50.1	-6.84	10.5
UACCCAUUGCAUAUCGGAGUUG [hsa-miR-660-5p]	30	-38.8	44.9
GUGGGCUGGGCUGGGCUGGGCC [hsa-miR-3620-5p]	31.3	-31.1	27.5
AAAGACCCAUUGAGGAGAAGGU [hsa-miR-3667-5p]	99.1	-13.6	11.5
CCUCACCACCCCUUCUGCCUGCA [hsa-miR-6511b-3p]	69.7	22.9	-22.7
AGCUGAGCUCCAUGGACGUGCAGU [hsa-miR-4663]	67	16.3	-21.4
CCACCAGGUCUAGCAUUGGGAU [hsa-miR-4733-3p]	29.8	-9.32	12.6
CUACAAAGGGAAGCACUUUCUC [hsa-miR-524-5p]	41.4	-38.7	17.4
CGGGAGCUGGGGUCUGCAGGU [hsa-miR-6726-5p]	73	58.1	-17.2
CCUAUUCUUGGUUACUUGCACG [hsa-miR-26a-1-3p]	49.7	-5.8	4.57
CAAGGCCAAAGGAAGAGAACAG [hsa-miR-4753-5p]	31.8	-19.1	2.71
UAUGGUACUCCUUAAGCUAAC [hsa-miR-5579-5p]	86.3	101	-26.5
ACUGCAUUAUGAGCACUUAAAG [hsa-miR-20a-3p]	138	43.3	-23.3
UCUGACAUCAGUGAUUCUCCUG [hsa-miR-6719-3p]	115	20.2	-5.44
UAAAGUGCUUAUAGUGCAGGUAG [hsa-miR-20a-5p]	81.6	6.94	-13.2
AAAAGUAAUUGCGGUUUUUGCC [hsa-miR-548c-5p]	166	16.9	-19.1
CUCCUGACUCCAGGUCCUGUGU [hsa-miR-378a-5p]	25.2	-8.66	10.6
UAACGGCCGCGGUACCCUAA [hsa-miR-4485]	32.8	-19.2	0.183
UGGGGGAGGAAGGACAGGCCAU [hsa-miR-7111-5p]	15.3	-6.11	36.7
UCGUACCGUGAGUAAUAAUGCG [hsa-miR-126-3p]	30.2	-0.677	5.16
